# Results reported in the RNAGym collection of RNA variant scans (doi:10.7554/elife.80360).
# B1: CPEB3 Ribozyme (parent)
# chain: GGGGGCCACAGCAGAAGCGUUCACGUCGCGGCCCCUGUCAGAUUCUGGUGAAUCUGCGAAUUCUGCUGU
# Variants of: B1
# Experiment: self-cleavage, relative activity (ratio to wild type); higher = more cleavage; co-transcriptional
row,Variant,self-cleavage
1,GGGGGCCACAGCAGAAUCGUUCACGUCGCGGCCCCUGUCAGAUUCUAGUGAAUCUGCGAAUUCUGCUGU,0.683
2,GGGGGCCACAGCAGAAUCGUUCACGUCGCGGCCCCUGUCAGAUUCUCGUGAAUCUGCGAAUUCUGCUGU,0.69
3,GGGGGCCACAGCAGAAUCGUUCACGUCGCGGCCCCUGUCAGAUUCUGGUGAAUCUGCGAAUUCUUCUGU,0.292
4,GGGGGCCACAGCAGAAUCGUUCACGUCGCGGCCCCUGUCAGAUUCUGGUGAAUCUGCGAAUUCUACUGU,0.254
5,GGGGGCCACAGCAGAAUCGUUCACGUCGCGGCCCCUGUCAGAUUCUGGUGAAUCUACGAAUUCUGCUGU,0.32
6,GGGGGCCACAGCAGAAUCGUUCACGUCGCGGCCCCUGUCAGAUUCUGGUGAAUCUCCGAAUUCUGCUGU,0.219
7,GGGGGCCACAGCAGAAUCGUUCACGUCGCGGCCCCUGUCAGAUUCUGGUGAAUCUUCGAAUUCUGCUGU,0.2
8,GGGGGCCACAGCAGAAUCGUUCACGUCGCGGCCCCUGUCAGAUUCUGGUGAAUCUGCGAAUUCUGGUGU,0.24
9,GGGGGCCACAGCAGAAUCGUUAACGUCGCGGCCCCUGUCAGAUUCUGGUGAAUCUGCGAAUUCUGCUGU,0.132
10,GGGGGCCACAGCAGAAUCGUUGACGUCGCGGCCCCUGUCAGAUUCUGGUGAAUCUGCGAAUUCUGCUGU,0.112
11,GGGGGCCACAGCAGAAUCGUUUACGUCGCGGCCCCUGUCAGAUUCUGGUGAAUCUGCGAAUUCUGCUGU,0.169
12,GGGGGCCACAGCAGAAUCGUUCAAGUCGCGGCCCCUGUCAGAUUCUGGUGAAUCUGCGAAUUCUGCUGU,0.133
13,GGGGGCCACAGCAGAAUCGUUCAUGUCGCGGCCCCUGUCAGAUUCUGGUGAAUCUGCGAAUUCUGCUGU,0.179
14,GGGGGCCACAGCAGAAUCGUUCAGGUCGCGGCCCCUGUCAGAUUCUGGUGAAUCUGCGAAUUCUGCUGU,0.0814
15,GGGGGCCACAGCAGAAUCGUUCACGUCGCGGCCCCUGUCUGAUUCUGGUGAAUCUGCGAAUUCUGCUGU,0.149
16,GGGGGCCACAGCAGAAUCGUUCACGUCGCGGACCCUGUCAGAUUCUGGUGAAUCUGCGAAUUCUGCUGU,0.154
17,GGGGGCCACAGCAGAAUCGUUCACGUCGCGGCCCCUGUCAGAUUCUGGUGAAUCUGCGAUUUCUGCUGU,0.229
18,GGGGGCCACAGCAGAAUCGUUCACGUCGCGGCCCCUGUCAGAUUCUGGUGAAUCUGCGAGUUCUGCUGU,0.248
19,GGGGGCCACAGCAGAAUCGUUCACGUCGCGGCCCCUGUCAGAUUCUGGUGAAUCUGCGACUUCUGCUGU,0.185
20,GGGGGCCACAGCAGAAUCGUUCACGUCCCGGCCCCUGUCAGAUUCUGGUGAAUCUGCGAAUUCUGCUGU,0.11

row,Variant,self-cleavage
1,GGGGGCCACAGCAGAAUCGUUCACGUCACGGCCCCUGUCAGAUUCUGGUGAAUCUGCGAAUUCUGCUGU,0.108
2,GGGGGCCACAGCAGAAUCGUUCACGUCGCGGCCCCUGUCAGAUUCUGGUGAAUCUGCCAAUUCUGCUGU,0.527
3,GGGGGCCACAGCAGAAUCGUUCACGUCGCGGCCCCUGUCAGAUUCUGGUGAAUCUGCUAAUUCUGCUGU,0.65
4,GGGGGCCACAGCAGAAUCGUUCACGUCGCGGCCCCUGUAAGAUUCUGGUGAAUCUGCGAAUUCUGCUGU,0.167
5,GGGGGCCACAGCAGAAUCGUUCACGUCGCGGCCCCUGUGAGAUUCUGGUGAAUCUGCGAAUUCUGCUGU,0.289
6,GGGGGCCACAGCAGAAUCGUUCACGUCGCGGCCCCUGUCAGCUUCUGGUGAAUCUGCGAAUUCUGCUGU,0.299
7,GGGGGCCACAGCAGAAUCGUUCACGUCGCGGCCCCUGUCAGUUUCUGGUGAAUCUGCGAAUUCUGCUGU,0.334
8,GGGGGCCACAGCAGAAUCGUUCACGUCGCGGCCCCUGUCAGAUUCUGGUGAAUCUGCGUAUUCUGCUGU,0.147
9,GGGGGCCACAGCAGAAUCGUUCACGUCGCGGCCCCUGUCAGAUUCUGGUGAAUCUGCGGAUUCUGCUGU,0.357
10,GGGGGCCACAGCAGAAUCGUUCACGUCGCGGCCCCUGUCAGAUUCUGGUGAAUCUGCGAAUUGUGCUGU,0.229
11,GGGGGCCACAGCAGAAUCGUUCACGUCGCGGCCCCUGUCAGAUUCUGGUGAAUCUGCGAAUUUUGCUGU,0.322
12,GGGGGCCACAGCAGAAUCGUUCACGUCGCGGCCCCUGUCAGAUUCUGGUGAAUCUGCGAAUUAUGCUGU,0.182
13,GGGGGCCACAGCAGAAUCGUUCACGUCGCGGCCCCUGUCAGAUUCUGGUGGAUCUGCGAAUUCUGCUGU,0.569
14,GGGGGCCACAGCAGAAUCGUUCACGUCGCGGCCCCUGUCAGAUUCUGGUGUAUCUGCGAAUUCUGCUGU,0.43
15,GGGGGCCACAGCAGAAUCGUUCACGUCGCGGCCCCUGUCAGAUUCUGGUGCAUCUGCGAAUUCUGCUGU,0.423
16,GGGGGCCACAGCAGAAUCGUUCACGUCGAGGCCCCUGUCAGAUUCUGGUGAAUCUGCGAAUUCUGCUGU,0.921
17,GGGGGCCACAGCAGAAUCGUUCACGUCGUGGCCCCUGUCAGAUUCUGGUGAAUCUGCGAAUUCUGCUGU,0.268
18,GGGGGCCACAGCAGAAUCGUUCACGUCGGGGCCCCUGUCAGAUUCUGGUGAAUCUGCGAAUUCUGCUGU,0.885
19,GGGGGCCACAGCAGAAUCGUUCACGUCGCGGCCCCUGUCAGAUUGUGGUGAAUCUGCGAAUUCUGCUGU,0.395
